According to PMC5291247:
“And” between values parts separate entries of the source, which are not always exact repeats. Equal values may be shown once.

Key:
[1] = biological target: Vps75 from which native cysteine residues had been removed (yeast (S. cerevisiae in the introduction)) (UniProt P53853); test: cross-linking; Vps75 titrated with H3-H4 at 200 mM NaCl, 20 mM HEPES pH 7.5; 30 min room temperature, 2 mM BS2G for 1 h, SDS-PAGE
[2] = biological target: Vps75 from which native cysteine residues had been removed (yeast (S. cerevisiae in the introduction)) (UniProt P53853); test: SEC-MALS + cross-linking; partial DTSSP cross-linking at 200 mM NaCl, 20 mM HEPES pH 7.5 (Vps75 alone, or Vps75 dimers and H3-H4 dimers 1:1, 10 uM); SEC-MALS on Superdex 200 10/300 GL at 400 mM NaCl, 20 mM HEPES-KOH pH 7.5; fractions on SDS-PAGE with and without DTT
[3] = biological target: Vps75 from which native cysteine residues had been removed (yeast (S. cerevisiae in the introduction)) (UniProt P53853); test: cross-linking; cross-linking analysis of Vps75 with Asf1 and H3-H4, SDS-PAGE (Supplementary Figure S4)

For “Vps75 from which native cysteine residues had been removed (from UniProt P53853 1-264) (natural protein)”, the stoichiometry N [1] was 4 and the stoichiometry N [2] was 4 and 2.

Substance “histones H3–H4 from which native cysteine residues had been removed (from UniProt P84233 1-136; P62799 1-103) (complex)” has a stoichiometry N (Vps75 monomers per H3-H4 dimer) [3] of 2.
